The source of these data is PMC7703809 (ChemMedChem, 2020).

One experiment concerns the target T1, PLK3 PBD (335–646) (Homo sapiens, UniProt Q9H4B4).
T1 sequence (Q9H4B4 335-646): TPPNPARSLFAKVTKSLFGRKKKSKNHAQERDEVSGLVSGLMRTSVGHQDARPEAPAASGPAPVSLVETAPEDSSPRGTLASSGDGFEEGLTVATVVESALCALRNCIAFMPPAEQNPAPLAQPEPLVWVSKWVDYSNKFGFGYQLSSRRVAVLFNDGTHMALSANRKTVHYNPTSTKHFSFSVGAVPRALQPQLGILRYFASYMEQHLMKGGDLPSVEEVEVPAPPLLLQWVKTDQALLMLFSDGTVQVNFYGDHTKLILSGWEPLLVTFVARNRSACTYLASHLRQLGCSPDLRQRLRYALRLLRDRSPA
The experiment in a line: Fluorescence polarization competitive binding assay, PLK3 PBD. (In general: Polarisation of emitted light reports the rotation of a fluorescent probe.)

The target of another experiment is PLK1 PBD (367–603) (Homo sapiens, UniProt P53350). Put plainly: Fluorescence polarization competitive binding assay, PLK1 PBD. As to conditions: for Selectivity Index: PLK1 vs PLK3 PBD, accounting for 5-fold difference in tracer affinity.
PLK1 PBD (367–603), sequence (P53350 367-603): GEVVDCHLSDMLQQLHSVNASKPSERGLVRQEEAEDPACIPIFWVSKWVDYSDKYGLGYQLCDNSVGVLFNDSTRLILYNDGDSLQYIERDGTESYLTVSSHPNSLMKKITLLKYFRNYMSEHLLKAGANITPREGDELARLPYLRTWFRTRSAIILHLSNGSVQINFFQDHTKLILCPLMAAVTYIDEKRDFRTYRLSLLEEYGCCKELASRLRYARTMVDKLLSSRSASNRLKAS
For the next experiment, the target named is T2, chimeric peptide 8.
T2 chain: GPLATS[pT]PNGL
Put plainly: fluorescence polarization competition.

A further experiment addresses T3, PBIP phosphopeptide 4 (Homo sapiens).
T3 chain: Ac-PLHS[pT]AI
Put plainly: fluorescence polarization competition.

The next experiment deals with T4, Cdc25C phosphopeptide 1 (Homo sapiens).
T4 chain: LLCS[pT]PNGL
Put plainly: fluorescence polarization competition.

For another experiment, the target named is T5, chimeric peptide 3.
T5 chain: Ac-PLHS[pT]PNGL
The experiment in a line: fluorescence polarization competition.

A further experiment addresses T6, FLIP 21.
T6 chain: {Benzoyl(4-octyl)}-S[pT]PNGL
The experiment in a line: fluorescence polarization competition.

The next experiment has as its target T7, PBIP phosphopeptide 5 (Homo sapiens).
T7 chain: Ac-LHS[pT]AI
Put plainly: fluorescence polarization competition.

For another experiment, the target named is T8, FLIP 19.
T8 chain: {4‑butylbenzoyl}-S[pT]PNGL
The experiment in a line: fluorescence polarization competition.

A further experiment addresses T9, PLK3 consensus peptide 7.
T9 chain: GPLATS[pT]PKNG
The experiment in a line: fluorescence polarization competition.

Another experiment has as its target T10, PBIP phosphopeptide 6 (Homo sapiens).
T10 chain: Ac-PLHS[pT]A
The experiment in a line: fluorescence polarization competition.

Another experiment concerns the target T11, chimeric peptide 9.
T11 chain: Ac-PLHS[pT]PKNG
The experiment in a line: fluorescence polarization competition.

In experiment [1] the target is T12, PLK3 fluorescein tracer phosphopeptide (also: fluorescein label, place not given here).
T12 chain: GPLATS[pT]PKNG
The experiment in a line: fluorescence polarization.

Non-standard residues stand in square brackets, D forms with d. Residues, ends and D or L forms follow the SMILES beside them. No end group written: not given here. *: point of attachment. Benzoyl(4-octyl) = CCCCCCCCc1ccc(C(=O)*)cc1; pT = C[C@@H](OP(=O)(O)O)[C@H](N)C(=O)O

The IC50 is the concentration that inhibits the measured activity by half. Low values mean higher potency, high ones lower potency. Turning to `CC(C)C[C@H](NC(=O)CNC(=O)[C@H](CC(N)=O)NC(=O)[C@@H]1CCCN1C(=O)[C@@H](NC(=O)[C@H](CO)NC(=O)[C@H](CS)NC(=O)[C@H](CC(C)C)NC(=O)[C@@H](N)CC(C)C)[C@@H](C)OP(=O)(O)O)C(=O)O` [Compound 1, LLCS[pT]PNGL] (H-LLCS[pT]PNGL-OH), on PLK3 PBD (335–646), the IC50 was > 600 µM.
Consider `CC[C@H](C)[C@H](NC(=O)[C@H](C)NC(=O)[C@@H](NC(=O)[C@H](CO)NC(=O)[C@H](Cc1c[nH]cn1)NC(=O)[C@H](CC(C)C)NC(=O)[C@@H]1CCCN1C(C)=O)[C@@H](C)OP(=O)(O)O)C(=O)O` [Compound 4, Ac-PLHS[pT]AI] (Ac-PLHS[pT]AI-OH), for which the “Selectivity Index” value at PLK1 PBD (367–603) was 21,133.
Regarding `CC[C@H](C)[C@H](NC(=O)[C@H](C)NC(=O)[C@@H](NC(=O)[C@H](CO)NC(=O)[C@H](Cc1c[nH]cn1)NC(=O)[C@H](CC(C)C)NC(C)=O)[C@@H](C)OP(=O)(O)O)C(=O)O` [Compound 5, Ac-LHS[pT]AI] (Ac-LHS[pT]AI-OH), the “PLK3 PBD FP IC50” value on PLK3 PBD (335–646) (competition with fluorescein tracer GPLATS[pT]PKNG, maximum 600 μM tested) is recorded as “lost all detectable affinity”.
For the molecule `CC(=O)N1CCC[C@H]1C(=O)N[C@@H](CC(C)C)C(=O)N[C@@H](Cc1c[nH]cn1)C(=O)N[C@@H](CO)C(=O)N[C@H](C(=O)N1CCC[C@H]1C(=O)N[C@@H](CCCCN)C(=O)N[C@@H](CC(N)=O)C(=O)NCC(=O)O)[C@@H](C)OP(=O)(O)O` [Compound 9, Ac-PLHS[pT]PKNG] (Ac-PLHS[pT]PKNG-OH), the “Selectivity Index” value at PLK1 PBD (367–603) is on record as 20,906.
LLCSTPNGL [Compound 2]: at PLK1 PBD (367–603) (competition with fluorescein tracer MAGPMQS[pT]PLNGAKK, maximum 600 μM tested), the “PLK1 PBD FP IC50” value is reported as “almost complete loss of binding”.

B1: PLK3 PBD 335-646 (protein)
chain: TPPNPARSLFAKVTKSLFGRKKKSKNHAQERDEVSGLVSGLMRTSVGHQDARPEAPAASGPAPVSLVETAPEDSSPRGTLASSGDGFEEGLTVATVVESALCALRNCIAFMPPAEQNPAPLAQPEPLVWVSKWVDYSNKFGFGYQLSSRRVAVLFNDGTHMALSANRKTVHYNPTSTKHFSFSVGAVPRALQPQLGILRYFASYMEQHLMKGGDLPSVEEVEVPAPPLLLQWVKTDQALLMLFSDGTVQVNFYGDHTKLILSGWEPLLVTFVARNRSACTYLASHLRQLGCSPDLRQRLRYALRLLRDRSPA
As usually defined, the Kd is the free concentration of one partner at which half of the binding sites on the other are occupied at equilibrium, for simple one-to-one binding. Lower therefore signals tighter binding. B1: the IC50 with chimeric peptide 8 was 6.3 µM; with PBIP phosphopeptide 4 it was 270 µM; with Cdc25C phosphopeptide 1 it was > 600 µM; with chimeric peptide 3, 164 µM; in the experiment with FLIP 21, 149 µM; in the experiment with PBIP phosphopeptide 5, > 600 µM. In addition, the IC50 with FLIP 19 is > 600 µM; with PLK3 consensus peptide 7, 2.2 µM; with PBIP phosphopeptide 6, > 600 µM; with chimeric peptide 9 it was 134 µM. This molecule gave an equilibrium dissociation constant (Kd) in [1] of 0.0272 µM.
